Measured values: patent US20090280056A1 (Genentech, published 2009)
Substitutions are numbered along the chain they refer to. Names and notes keep the numbering of the source. One block for each binder: values may come before it.

Columns and labels:
human STEAP-1 [1] = target: T1, human STEAP-1 (human, UniProt Q9UHE8 1-339); assay: Scatchard analysis on 293 STEAP-1 NT LB50 cells
T1 construct: also called Six Transmembrane Epithelial Antigen of the Prostate

human STEAP-1 [2] = target: T1, human STEAP-1; assay: Scatchard analysis; the sentence names no reference (the preceding sentences compare with chimeric 120 IgG)
Source text: (§1) IgG Production and Affinity Determination -IgG was purified with Protein G affinity chromatography.
Although the 120-graft IgG bound specifically to the STEAP-1 expressing cells, the FACS signal observed for the 120-graft IgG was smaller than that observed for the chimeric 120 IgG indicating a loss in binding affinity. Phage displaying the 120-graft Fab also generated a FACS signal that was only observed on STEAP-1 expressing cells. This shift was less than that observed for the chimeric 120 IgG.

human STEAP-1 [3] = target: T1, human STEAP-1; assay: Scatchard analysis on LNCaP.BR cells (endogenous STEAP-1), Assay 734; displacement plot 25G and Scatchard plot 25H
Source text: (§2) JgG was purified with Protein G affinity chromatography.

human STEAP-1 [4] = target: T1, human STEAP-1; assay: Scatchard analysis on LNCaP.BR cells (endogenous STEAP-1), Assay 733; displacement plot 25E and Scatchard plot 25F
Source text: as §2

human STEAP-1 [5] = target: T1, human STEAP-1; assay: Scatchard analysis on 293-LB50 cells (exogenous STEAP-1), average
Source text: as §2

human STEAP-1 [6] = target: T1, human STEAP-1; assay: Scatchard analysis on 293.LB50 cells (exogenous STEAP-1), Assay 735; displacement plot 26E and Scatchard plot 26F
Source text: as §2

human STEAP-1 [7] = target: T1, human STEAP-1; assay: Scatchard analysis on 293.LB50 cells (exogenous STEAP-1), Assay 736; displacement plot 26G and Scatchard plot 26H
Source text: as §2

human STEAP-1 [8] = target: T1, human STEAP-1; assay: Scatchard analysis on LNCaP-BR cells (endogenous STEAP-1), average
Source text: as §2

[9] = target: T2, cynomolgus monkey STEAP-1 (cynomolgus monkey, UniProt Q9UHE8 1-339 (human entry)); assay: Scatchard analysis on 293 cells transiently expressing cyno Steap1; side note: Same Affinity for human & cyno
T2 construct: The cells carrying cyno STEAP-1 are not described; also called cyno STEAP-1

human STEAP-1 [10] = target: T1, human STEAP-1; assay: Scatchard analysis on LNCaP.BR cells (endogenous STEAP-1), Assay 740; displacement plot 25C and Scatchard plot 25D
Source text: as §2

human STEAP-1 [11] = target: T1, human STEAP-1; assay: Scatchard analysis on 293 cells transiently expressing human Steap1
Source text: as §2

human STEAP-1 [12] = target: T1, human STEAP-1; assay: Scatchard analysis on 293.LB50 cells (exogenous STEAP-1), Assay 737; displacement plot 26A and Scatchard plot 26B
Source text: as §2

human STEAP-1 [13] = target: T1, human STEAP-1; assay: Scatchard analysis on 293.LB50 cells (exogenous STEAP-1), Assay 738; displacement plot 26C and Scatchard plot 26D
Source text: as §2

human STEAP-1 [14] = target: T1, human STEAP-1; assay: Scatchard analysis on LNCaP.BR cells (endogenous STEAP-1), Assay 739; displacement plot 25A and Scatchard plot 25B
Source text: as §2

mouse STEAP-1 [15] = target: T3, mouse STEAP-1 (mouse, UniProt Q9CWR7 1-339); assay: FACS on cells expressing mouse STEAP-1 (panel title MOUSE, cell line not named), PE detection; key in Figure 7A: hu 24-67
T3 construct: The cells carrying mouse STEAP-1 are not described in the text; also called STEAP-1 from mouse

[16] = target: T2, cynomolgus monkey STEAP-1; assay: FACS on cells expressing cynomolgus STEAP-1 (panel title CYNO, cell line not named), PE detection
human STEAP-1 [17] = target: T1, human STEAP-1; assay: Scatchard analysis on 293-LB50 and LNCaP.BR cells
Source text: as §2

human STEAP-1 [18] = target: T1, human STEAP-1; assay: Scatchard analysis on 293.LB50 cells (exogenous STEAP-1)
Source text: as §1
When expressed as an IgG, 120.v24 produced a similar FACS shift to the chimeric 120 antibody at all concentrations tested.

human STEAP-1 [19] = target: T1, human STEAP-1; assay: Scatchard analysis on PC3-PS5.4 cells (exogenous STEAP-1)
human STEAP-1 [20] = target: T1, human STEAP-1; assay: Scatchard analysis on LNCaP-BR cells (endogenous STEAP-1)
mouse STEAP-1 [21] = target: T3, mouse STEAP-1; assay: FACS on cells expressing mouse STEAP-1 (panel title MOUSE, cell line not named), PE detection; key in Figure 7A: 120
mouse STEAP-1 [22] = target: T3, mouse STEAP-1; assay: FACS on cells expressing mouse STEAP-1 (panel title MOUSE, cell line not named), PE detection; key in Figure 7A: 120 chi

T3 sequence (Q9CWR7 other isoform, or with tags, fused parts or gaps): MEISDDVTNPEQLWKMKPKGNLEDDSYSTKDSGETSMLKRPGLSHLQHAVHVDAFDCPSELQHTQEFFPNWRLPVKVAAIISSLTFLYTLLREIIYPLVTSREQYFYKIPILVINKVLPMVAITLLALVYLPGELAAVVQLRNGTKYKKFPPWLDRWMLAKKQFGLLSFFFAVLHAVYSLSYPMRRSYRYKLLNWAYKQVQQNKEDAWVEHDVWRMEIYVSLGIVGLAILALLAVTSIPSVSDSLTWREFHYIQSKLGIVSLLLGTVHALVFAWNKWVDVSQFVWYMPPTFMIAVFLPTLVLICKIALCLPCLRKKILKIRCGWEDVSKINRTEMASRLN
T2 sequence (Q9UHE8 other isoform, or with tags, fused parts or gaps): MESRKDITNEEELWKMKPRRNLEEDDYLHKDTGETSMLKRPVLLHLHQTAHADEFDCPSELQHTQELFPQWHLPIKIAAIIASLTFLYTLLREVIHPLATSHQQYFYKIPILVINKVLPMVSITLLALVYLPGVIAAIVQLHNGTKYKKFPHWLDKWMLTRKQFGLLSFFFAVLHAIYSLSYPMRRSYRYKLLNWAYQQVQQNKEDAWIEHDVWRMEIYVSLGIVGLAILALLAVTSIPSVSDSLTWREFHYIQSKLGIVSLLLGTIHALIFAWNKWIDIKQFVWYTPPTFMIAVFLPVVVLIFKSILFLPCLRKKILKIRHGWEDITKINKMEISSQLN
T1 sequence (Q9UHE8 other isoform, or with tags, fused parts or gaps): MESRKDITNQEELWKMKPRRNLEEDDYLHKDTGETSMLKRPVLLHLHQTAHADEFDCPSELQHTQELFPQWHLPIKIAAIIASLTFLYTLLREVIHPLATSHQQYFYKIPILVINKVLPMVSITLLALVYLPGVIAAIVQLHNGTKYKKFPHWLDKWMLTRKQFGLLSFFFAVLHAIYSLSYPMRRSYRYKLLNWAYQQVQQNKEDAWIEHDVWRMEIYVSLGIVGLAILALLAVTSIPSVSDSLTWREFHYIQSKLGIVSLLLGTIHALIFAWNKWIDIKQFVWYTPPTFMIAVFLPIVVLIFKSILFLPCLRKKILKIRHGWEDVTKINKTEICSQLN

- Kd (human STEAP-1 [1]): 260 nM
- fold loss in binding affinity (human STEAP-1 [2]): ~50 fold
B1: 120 graft IgG (antibody, V domains shown)
VH: EVQLVESGGGLVQPGGSLRLSCAASGYSITSDYAWNWVRQAPGKGLEWVGYISNSGSTSYNPSLKSRFTISRDNSKNTLYLQMNSLRAEDTAVYYCARERNYDYDDYYYAMDYWGQGTLVTVSS
VL: DIQMTQSPSSLSASVGDRVTITCKSSQSLLYRSNQKNYLAWYQQKPGKAPKLLIYWASTRESGVPSRFSGSGSGTDFTLTISSLQPEDFATYYCQQYYNYPRTFGQGTKVEIKR
notes: Direct CDR graft of murine 120 onto the human kappa I / VH subgroup III consensus, expressed as IgG; also called graft 120

- Kd (human STEAP-1 [3]): 1.9 nM
- Kd (human STEAP-1 [4]): 2.3 nM
- Kd (human STEAP-1 [5]): 2.8 nM
- Kd (human STEAP-1 [6]): 2.7 nM
- Kd (human STEAP-1 [7]): 2.8 nM
- Kd (human STEAP-1 [8]): 2.1 nM
B2: anti-STEAP-1 antibody SGIV (antibody, name in Kabat numbering, V domains shown)
VH: B1 VH with A24V
VL: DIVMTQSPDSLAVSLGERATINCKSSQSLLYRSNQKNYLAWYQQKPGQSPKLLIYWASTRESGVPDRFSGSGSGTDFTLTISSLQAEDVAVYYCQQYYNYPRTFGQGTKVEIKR
notes: Described as a revised light chain variant of the 120.v24 antibody, expressed as IgG; also called Simmons IV; SGIV variant

- Kd [9]: 1.1 nM
- Kd (human STEAP-1 [10]): 1.7 nM
- Kd (human STEAP-1 [11]): 1.4 nM
- Kd (human STEAP-1 [5]): 1.9 nM
- Kd (human STEAP-1 [12]): 1.7 nM
- Kd (human STEAP-1 [8]): 1.4 nM
- Kd (human STEAP-1 [13]): 2 nM
- Kd (human STEAP-1 [14]): 1.1 nM
B3: Original Thio 120V24 (antibody, V domains shown)
VH: B1 VH with A24V
VL: DIQMTQSPSSLSASVGDRVTITCKSSQSLLYRSNQKNYLAWYQQKPGKAPKLLIYWASTRESGVPSRFSGSGSGTDFTLTISSLQPEDFATYYCQQYYNYPRTFGQGTKVEIK
modifications: One engineered free cysteine per chain pair, taken to lie in a constant region and so not in these letters. paragraph 175 calls the antibody a thio-LC variant (V205C Kabat). The site for lot PUR 12813 is not stated at the results.
notes: also called orig thio (PUR 12813); Thio Mab

- Kd (human STEAP-1 [1]): 36 nM
B4: 120v.78 (antibody, name in Kabat numbering, V domains shown)
VH: B1 VH with L79F
VL: B1 VL

- binding result (mouse STEAP-1 [15]): no binding
- fold improvement in Kd over the 120 chimera and the original murine M2-120.545 (human STEAP-1 [1]): 2 fold
- binding result [16]: binds
- fold binding affinity relative to the SGIV variant (human STEAP-1 [17]): ~1.5 fold
- Kd (human STEAP-1 [18]): 2.2 nM
- sites per cell (human STEAP-1 [18]): 264000 sites per cell
B5: humanized anti-STEAP-1 120v.24 (IgG) (antibody, name in Kabat numbering, V domains shown)
VH: B1 VH with A24V
VL: B1 VL
notes: also called humanized 120.v24; humanized version 24

- binding result [16]: binds
- Kd (human STEAP-1 [19]): 17.5 nM
- Kd (human STEAP-1 [20]): 1.5 nM
- binding result (mouse STEAP-1 [21]): no binding
- Kd (human STEAP-1 [18]): 4.7 nM
- sites per cell (human STEAP-1 [18]): 301000 sites per cell
B6: murine anti-STEAP-1 MAb 120.545 (antibody, V domains shown)
VH: DVQVQESGPGLVKPSQSLSLTCTVTGYSITSDYAWNWIRQFPGNKLEWMGYISNSGSTSYNPSLKSRISITRDTSKNQFFLQLISVTTEDTATYYCARERNYDYDDYYYAMDYWGQGTTLTVSA
VL: DIVMSQSPSSLAVSVGEKVTMSCKSSQSLLYRSNQKNYLAWYQQKPGQSPKLLIYWASTRESGVPDRFTGSGSGTDFTLTISSVKAEDLAVYYCQQYYNYPRTFGGGTKVEIK
notes: also called murine 120

- binding result (mouse STEAP-1 [22]): no binding
- binding result [16]: binds
- Kd (human STEAP-1 [19]): 9.9 nM
- Kd (human STEAP-1 [20]): 0.9 nM
- Kd (human STEAP-1 [18]): 4.9 nM
- sites per cell (human STEAP-1 [18]): 253000 sites per cell
B7: 120 chimera (antibody, V domains shown)
VH: B6 VH
VL: B6 VL
notes: If that entry holds a murine constant part, only its variable part applies here; also called chimera 120; chimeric 120 IgG
